Results reported in patent publication US9012398B2.

Target: human GLP-1 receptor (human) (UniProt P43220)

Row | Substance | GLP1cAMPma (3693) [EC50 (nM)] Mean Value
1 | N--ε^20-{2-(2-(2-(2-[2-(2-(4-(hexadecanoylamino)-4- carboxybutyrylamino)ethoxy)ethoxy]acetyl)ethoxy)ethoxy)acetyl)}- [Leu^14,Gln^27,Gln^28,Lys^20]Exendin-4-amide (from UniProt P26349) (peptide) | 0.093 nM
2 | N-epsilon20-{2-(2-(2-(2-[2-(2-(4-(hexadecanoylamino)-4-(S)- carboxybutyrylamino)ethoxy)ethoxy]acetyl)ethoxy)ethoxy)acetyl)}- [[Aib2,Lys20,Gln28]Exendin-4-amide (from UniProt P26349) (peptide) | 0.0095 nM
3 | N-ε^12-(2-(2-(2-(2-(2-(2-(2-(2-(2-Octadecanoylamino) ethoxy)ethoxy)acetylamino)ethoxy)ethoxy)acetylamino)ethoxy)ethoxy)acetyl)) [Lys^12,Leu^14,Arg^27,Gln^28]Exendin-4-(1-39)-amide (from UniProt P26349) (peptide) | 0.0035 nM
4 | N-ε^12-[2-(2-[2-(2-[2-(2-[4-(17-carboxyheptadecanoylamino)-4(S)- carboxybutyrylamino]ethoxy)ethoxy]acetylamino)ethoxy]ethoxy)acetyl] [Lys^12,Leu^14,Arg^27,Gln^28]Exendin-4-(1-39)-amide (from UniProt P26349) (peptide) | 0.22 nM
5 | N-ε^12-[2-(2-[2-(2-[2-(2-[4-(hexadecanoylamino)-4(S)- carboxybutyrylamino]ethoxy)ethoxy]acetylamino)ethoxy]ethoxy)acetyl] [Lys^12,Leu^14,Arg^27,Gln^28]Exendin-4-(1-39)-amide (from UniProt P26349) (peptide) | 0.006 nM
6 | N-ε^14-(2-(2-2-(2-(2-(4-(hexadecanoylamino)-4-(S)- carboxybytyrylamino)ethoxy)ethoxy)acetylamino)ethoxy)ethoxy)acetyl [Arg^12,Lys^l4,Val^27,Arg^28]Exendin-4-(1-39)-amide (from UniProt P26349) (peptide) | 0.037 nM
7 | N-ε^14-(2-(2-(2-(2-(2-(2-(2-(2-(2- (Octadecanoylamino)ethoxy)ethoxy)acetylamino)ethoxy)ethoxy)acetyl- amino)ethoxy)ethoxy)acetyl)[Arg^12,Lys^14,Val^27,Arg^28]Exendin-4-(1-39)- amide (from UniProt P26349) (peptide) | 0.088 nM
8 | N-ε^14-(2-(2-(2-(2-(2-(2-(4-(Octadecanoylamino)-4(S)- carboxybutyrylamino)ethoxy)ethoxy)acetylamino)ethoxy)ethoxy)acetyl [Arg^12,Lys^14,Val^27,Arg^28]Exendin-4-(1-39)-amide (from UniProt P26349) (peptide) | 0.059 nM
9 | N-ε^14-(2-(2-(2-(2-(2-(2-(17- carboxyheptadecanoylamino)ethoxy)ethoxy)acetylamino)ethoxy) ethoxy)acetyl[Arg^12,Lys^14,Val^27,Arg^28]Exendin-4-(1-39)-amide (from UniProt P26349) (peptide) | 3.65 nM
10 | N-ε^20-2-(2-(2-(2-(2-(2-(4-(Hexadecanoylamino)-4(S)- carboxybutyrylamino)ethoxy)ethoxy)acetylamino)ethoxy) ethoxy)acetyl[Arg^12,27,Leu^14,Lys^20,Gln^28]Exendin-4-(1-39)-peptide amide (from UniProt P26349) | 0.033 nM
11 | N-ε^20-(2-(2-(2-(2-(2-(2-(2-(2-(2- (Octadecanoylamino)ethoxy)ethoxy)acetylamino)ethoxy)ethoxy)acetyl- amino)ethoxy)ethoxy)acety))[Arg^12,27,28,Leu^14,Lys^20 Exendin-4(1- 39)amide (from UniProt P26349) (peptide) | 0.007 nM
12 | N-ε^20-(2-(2-(2-(2-(2-(2-(17- carboxyheptadecanoylamino)ethoxy)ethoxy)acetylamino)ethoxy) ethoxy)acetyl)[Arg12,Leu^14,Arg^27,Gln^28,Lys^20]Exendin-4 (1-39)amide (from UniProt P26349) (peptide) | 5.45 nM
13 | N-ε^20-(2-(2-(2-(2-(2-(2-(17- carboxyheptadecanoylamino)ethoxy)ethoxy)acetylamino)ethoxy) ethoxy)acetyl[Aib^2,Lys^20,Ala^29,Ser(O-benzyl)^39]Exendin-4-(1-39)-amide (from UniProt P26349) (peptide) | 0.23 nM
14 | N-ε^20-[2-(2-[2-(2-[2-(2-[4-(17-Carboxyheptadecanoylamino)-4(S)- carboxybutyrylamino]ethoxy)ethoxy]acetylamino)ethoxy]ethoxy)acetyl] [Aib^2;Gln^28,Lys^20]exendin-4(1-39)amide (from UniProt P26349) (peptide) | 0.1 nM
15 | N-ε^20-[2-(2-[2-(2-[2-(2-[4-(17-Carboxyheptadecanoylamino)-4(S)- carboxybutyrylamino]ethoxy)ethoxy]acetylamino)ethoxy]ethoxy)acetyl] [Imidazoylpropionyl^1;Gin^28,Lys^20]exendin-4(1-39)amide (from UniProt P26349) (peptide) | 2.18 nM
16 | N-ε^20-[2-(2-[2-(2-[2-(2-[4-(hexadecanoylamino)-4(S)- carboxybutyrylamino]ethoxy)ethoxy]acetylamino)ethoxy]ethoxy)acetyl] [Imidazoylpropionyl^1,Lys^20,Gln^28]Exendin-4-(1-39)-amide (from UniProt P26349) (peptide) | 0.042 nM
17 | N-ε^20-[2-(2-[2-(2-[2-(2-[4-(octadecanoylamino)-4(S)- carboxybutyrylamino]ethoxy)ethoxy]acetylamino)ethoxy]ethoxy)acetyl] [Aib^2,Lys^20,Ala^29,Ser(O-benzyl)^39]Exendin-4-(1-39)-amide (from UniProt P26349) (peptide) | 0.006 nM
18 | N-ε^20-[2-(2-[2-(2-[2-(2-[4-Octadecanoylamino-4(S)- carboxybutyrylamino]ethoxy)ethoxy]acetylamino)ethoxy]ethoxy)acetyl] [Arg^12,27,Gln^28,Leu^14,Lys^20 Exendin-4(1-39)amide (from UniProt P26349) (peptide) | 0.044 nM
19 | N-ε^20-[2-(2-[2-(2-[2-(2-[4-hexadecanoylamino-4(S)- carboxybutyrylamino]ethoxy)ethoxy]acetylamino)ethoxy]ethoxy)acetyl] [Arg^12,27,28,Leu^14,Lys^20]Exendin-4(1-39)amide (from UniProt P26349) (peptide) | 0.027 nM
20 | N-ε^20-{2-(2-(2-(2-[2-(2-(4-(hexadecanoylamino)-4- carboxybutyrylamino)ethoxy)ethoxy]acetyl)ethoxy)ethoxy)acetyl)}- [Gln^12,27,Leu^14,Lys^20,Gln^28]Exendin-4-amide (from UniProt P26349) (peptide) | 0.027 nM
21 | N-ε^20-{2-(2-(2-(2-[2-(2-(4-(hexadecanoylamino)-4- carboxybutyrylamino)ethoxy)ethoxy]acetylamino)ethoxy)ethoxy) acetyl)}-[Gln^28,Lys^20]Exendin-4-amide (from UniProt P26349) (peptide) | 0.033 nM
22 | N-ε^20-{2-(2-(2-(2-[2-(2-(4-(hexadecanoylamino)-4- carboxybutyrylamino)ethoxy)ethoxy]acetylamino)ethoxy)ethoxy) acetyl)}-[Leu^14,Gln^28,Lys^20]Exendin-4-amide (from UniProt P26349) (peptide) | 0.023 nM
23 | N-ε^20-{2-(2-(2-(2-[2-(2-(4-(hexadecanoylamino)-4- carboxybutyrylamino)ethoxy)ethoxy]acetylamino)ethoxy)ethoxy)acetyl)}- [Gln^12,Leu^14,Gln^28,Lys^20]Exendin-4-amide (from UniProt P26349) (peptide) | 0.021 nM
24 | N-ε^27-2-(2-2-(2-(2-(2-(2-(2-(2- (Octadecanoylamino)ethoxy)ethoxy)acetylamino)ethoxy)ethoxy)acetyl- amino)ethoxy)ethoxy)acetyl[Arg^12,Leu^14,Lys^27,Leu^28]Exendin-4- (1-39)-amide (from UniProt P26349) (peptide) | 0.049 nM
25 | N-ε^27-2-(2-2-(2-(2-(2-(4-(Hexadecanoylamino)-4(S)- carboxybutyrylamino)ethoxy)ethoxy)acetylamino)ethoxy) ethoxy)acetyl[Arg^12,Leu^14,Lys^27,Leu^28]Exendin-4-(1-39)-peptide amide (from UniProt P26349) | 0.093 nM
26 | N-ε^27-2-(2-2-(2-(2-(2-(4-(Octadecanoylamino)-4(S)- carboxybutyrylamino)ethoxy)ethoxy)acetylamino)ethoxy)ethoxy)acetyl [Arg^12,Leu^14,Lys^27,Leu^28]Exendin-4-(1-39)-amide (from UniProt P26349) (peptide) | 0.14 nM
27 | N-ε^27-2-(2-(2-(2-(2-(2-(4-(Octadecanoylamino)-4(S)- carboxybutyrylamino)ethoxy)ethoxy)acetylamino)ethoxy) ethoxy)acetyl[Arg^12,Leu^14,Lys^27,Ala^29]Exendin-4-(1-39)-amide (from UniProt P26349) (peptide) | 0.24 nM
28 | N-ε^27-(2-(2-(2-(2-(2-(2-(2-(2-(2- (Octadecanoylamino)ethoxy)ethoxy)acetylamino)ethoxy)ethoxy)acetyl- amino)ethoxy)ethoxy)acetyl)[Arg^12,Leu^14,Lys^27,Ala^29]Exendin-4-(1- 39)-amide (from UniProt P26349) (peptide) | 0.08 nM
29 | N-ε^27-(2-(2-(2-(2-(2-(2-(17- carboxyheptadecanoylamino)ethoxy)ethoxy)acetylamino)ethoxy) ethoxy)acetyl)[Leu^14,Arg^12,Lys^27]Exendin-4(1-39)amide (from UniProt P26349) (peptide) | 0.35 nM
30 | N-ε^27-(2-(2-(2-(2-(2-(2-(17- carboxyheptadecanoylamino)ethoxy)ethoxy)acetylamino)ethoxy) ethoxy)acetyl[Arg^12,Leu^14,Lys^27,Ala^29]Exendin-4-(1-39)-amide (from UniProt P26349) (peptide) | 5.6 nM
